Assay results as given in paper PMC9482650, “Quantitative fragmentomics allow affinity mapping of interactomes” (Nature Communications, 2022).
Numbering of substitutions follows the chain as printed.

How the values were obtained:
Assay in all cases: holdup assay
Set-up in all cases: key: below the threshold = too weak to quantify, mostly under pKd 3.1 to 4
AHNAK1, Q09666 = target: AHNAK1, Q09666
APBA1_1, Q02410 = target: T1, APBA1_1, Q02410
T1 sequence (Q02410 651-752, limits assumed, looked up): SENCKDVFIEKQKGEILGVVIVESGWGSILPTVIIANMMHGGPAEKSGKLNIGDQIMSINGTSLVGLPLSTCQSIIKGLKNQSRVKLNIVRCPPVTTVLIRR

ARHGEF12, Q9NZN5-2 = target: ARHGEF12, Q9NZN5-2
CASK, O14936 = target: CASK, O14936
DLG3_3, Q92796 = target: T2, DLG3_3, Q92796
T2 sequence (Q92796 374-475, limits assumed, looked up): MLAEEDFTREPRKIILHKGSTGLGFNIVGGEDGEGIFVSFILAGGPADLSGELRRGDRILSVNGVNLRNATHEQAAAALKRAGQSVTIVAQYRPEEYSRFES

GORASP1, Q9BQQ3 = target: GORASP1, Q9BQQ3
GRIP1_2, Q9Y3R0 = target: T3, GRIP1_2, Q9Y3R0
T3 sequence (Q9Y3R0 145-248, limits assumed, looked up): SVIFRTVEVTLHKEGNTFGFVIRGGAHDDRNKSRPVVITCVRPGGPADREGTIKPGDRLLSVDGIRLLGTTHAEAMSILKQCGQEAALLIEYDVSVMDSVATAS

GRIP1_7, Q9Y3R0 = target: T4, GRIP1_7, Q9Y3R0
T4 sequence (Q9Y3R0 999-1096, limits assumed, looked up): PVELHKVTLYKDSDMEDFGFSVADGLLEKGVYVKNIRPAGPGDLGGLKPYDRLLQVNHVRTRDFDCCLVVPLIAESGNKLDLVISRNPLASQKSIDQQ

HTRA2, O43464 = target: HTRA2, O43464
Inadl_1, Q8NI35 = target: Inadl_1, Q8NI35
Inadl_8, Q8NI35 = target: Inadl_8, Q8NI35
LIN7B, Q9HAP6 = target: T5, LIN7B, Q9HAP6
T5 sequence (Q9HAP6 88-185, limits assumed, looked up): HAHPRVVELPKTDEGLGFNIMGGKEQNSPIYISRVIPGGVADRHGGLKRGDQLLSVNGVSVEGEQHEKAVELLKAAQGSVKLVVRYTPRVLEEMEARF

LIN7C, Q9NUP9 = target: T6, LIN7C, Q9NUP9
T6 sequence (Q9NUP9 88-185, limits assumed, looked up): T5 sequence (Q9HAP6 88-185, limits assumed, looked up) with A2S, D13E, V35I, V40I, Q65H, S79K, R89K, A96S

LNX1_1, Q8TBB1 = target: LNX1_1, Q8TBB1
MAGI2_3, Q86UL8 = target: MAGI2_3, Q86UL8
MAGI2_5, Q86UL8 = target: MAGI2_5, Q86UL8
MAGI3_2, Q5TCQ9 = target: MAGI3_2, Q5TCQ9
MAST1, Q9Y2H9 = target: MAST1, Q9Y2H9
MAST2, Q6P0Q8 = target: MAST2, Q6P0Q8
NHERF2_2, Q15599 = target: NHERF2_2, Q15599
NHERF4_1, Q86UT5-2 = target: NHERF4_1, Q86UT5-2
PARD3_3, Q8TEW0 = target: PARD3_3, Q8TEW0
PDLIM1, O00151 = target: PDLIM1, O00151
PTPN3, P26045 = target: PTPN3, P26045
SCRIB_1, Q14160 = target: SCRIB_1, Q14160
SCRIB_2, Q14160 = target: SCRIB_2, Q14160
SCRIB_3, Q14160 = target: SCRIB_3, Q14160
SNTG2, Q9NY99 = target: T7, SNTG2, Q9NY99
T7 sequence (Q9NY99 68-166, limits assumed, looked up): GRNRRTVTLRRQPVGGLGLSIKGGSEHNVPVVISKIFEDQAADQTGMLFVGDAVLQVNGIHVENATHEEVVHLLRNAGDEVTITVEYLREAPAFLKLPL

SNX27, Q96L92 = target: SNX27, Q96L92
TJP1_2, Q07157 = target: TJP1_2, Q07157
TJP3_3, O95049 = target: T8, TJP3_3, O95049
T8 sequence (O95049 375-456, limits assumed, looked up): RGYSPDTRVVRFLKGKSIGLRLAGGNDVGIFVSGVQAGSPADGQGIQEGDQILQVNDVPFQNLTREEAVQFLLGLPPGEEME

[1] = plain residues with an end cap or a label only (N-terminal biotin on a linker: ahx)
[2] = plain residues with an end cap or a label only (N-terminal biotin on a linker: ttds)

Sequence of MAST1, Q9Y2H9 (Q9Y2H9 962-1065): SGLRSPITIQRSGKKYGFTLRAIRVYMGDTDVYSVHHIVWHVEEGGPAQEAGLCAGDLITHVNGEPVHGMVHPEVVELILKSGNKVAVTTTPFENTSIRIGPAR
Sequence of PARD3_3, Q8TEW0 (Q8TEW0 582-685): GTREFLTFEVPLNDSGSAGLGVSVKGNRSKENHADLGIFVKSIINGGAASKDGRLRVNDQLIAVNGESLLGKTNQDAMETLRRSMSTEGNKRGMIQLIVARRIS
Sequence of PDLIM1, O00151 (O00151 1-87): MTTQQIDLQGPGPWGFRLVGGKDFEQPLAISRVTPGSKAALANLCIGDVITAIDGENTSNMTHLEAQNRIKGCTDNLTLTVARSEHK
Sequence of TJP1_2, Q07157 (Q07157 181-274): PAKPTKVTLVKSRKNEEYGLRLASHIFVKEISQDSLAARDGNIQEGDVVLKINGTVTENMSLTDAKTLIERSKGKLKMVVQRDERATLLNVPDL
Sequence of MAGI2_5, Q86UL8 (Q86UL8 915-1017): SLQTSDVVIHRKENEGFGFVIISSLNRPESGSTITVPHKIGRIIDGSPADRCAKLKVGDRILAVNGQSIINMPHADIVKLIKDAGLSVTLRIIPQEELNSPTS
Sequence of ARHGEF12, Q9NZN5-2 (Q9NZN5 other isoform, or with tags, fused parts or gaps): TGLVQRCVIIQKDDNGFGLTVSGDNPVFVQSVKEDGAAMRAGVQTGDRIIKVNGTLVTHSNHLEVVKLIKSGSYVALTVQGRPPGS
Sequence of MAGI2_3, Q86UL8 (Q86UL8 600-682): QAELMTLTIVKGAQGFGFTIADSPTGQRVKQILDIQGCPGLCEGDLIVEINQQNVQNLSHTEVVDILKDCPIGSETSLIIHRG
Sequence of GORASP1, Q9BQQ3 (Q9BQQ3 1-208): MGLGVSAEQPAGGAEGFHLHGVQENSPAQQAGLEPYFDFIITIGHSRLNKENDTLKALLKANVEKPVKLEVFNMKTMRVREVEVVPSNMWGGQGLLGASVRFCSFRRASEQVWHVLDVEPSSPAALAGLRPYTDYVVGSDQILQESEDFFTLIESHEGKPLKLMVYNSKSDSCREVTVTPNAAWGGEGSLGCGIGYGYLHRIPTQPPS
Sequence of AHNAK1, Q09666 (Q09666 4-100): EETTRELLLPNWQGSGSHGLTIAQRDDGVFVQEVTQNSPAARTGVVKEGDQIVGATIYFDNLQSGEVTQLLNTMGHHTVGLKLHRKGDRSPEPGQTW
Sequence of NHERF4_1, Q86UT5-2 (Q86UT5 other isoform, or with tags, fused parts or gaps): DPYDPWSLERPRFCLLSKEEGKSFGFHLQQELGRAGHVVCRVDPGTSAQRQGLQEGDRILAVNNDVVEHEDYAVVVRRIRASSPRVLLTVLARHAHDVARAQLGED
Sequence of Inadl_8, Q8NI35 (Q8NI35 1425-1530): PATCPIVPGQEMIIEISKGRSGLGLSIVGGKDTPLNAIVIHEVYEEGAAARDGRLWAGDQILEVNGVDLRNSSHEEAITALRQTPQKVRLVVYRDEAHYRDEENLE
Sequence of SCRIB_2, Q14160 (Q14160 857-960): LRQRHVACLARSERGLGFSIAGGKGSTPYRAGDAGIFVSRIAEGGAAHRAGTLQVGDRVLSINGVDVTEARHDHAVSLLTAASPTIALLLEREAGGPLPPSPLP
Sequence of MAGI3_2, Q5TCQ9 (Q5TCQ9 398-503): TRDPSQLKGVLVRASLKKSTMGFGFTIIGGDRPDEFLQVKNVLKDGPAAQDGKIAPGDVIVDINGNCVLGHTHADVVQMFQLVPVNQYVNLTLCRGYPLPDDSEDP
Sequence of NHERF2_2, Q15599 (Q15599 142-238): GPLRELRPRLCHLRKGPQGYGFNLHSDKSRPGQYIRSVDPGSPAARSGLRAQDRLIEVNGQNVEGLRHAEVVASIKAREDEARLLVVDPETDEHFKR
Sequence of CASK, O14936 (O14936 487-570): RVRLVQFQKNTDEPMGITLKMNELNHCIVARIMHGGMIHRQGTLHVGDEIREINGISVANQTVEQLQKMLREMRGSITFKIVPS
Sequence of SCRIB_3, Q14160 (Q14160 999-1103): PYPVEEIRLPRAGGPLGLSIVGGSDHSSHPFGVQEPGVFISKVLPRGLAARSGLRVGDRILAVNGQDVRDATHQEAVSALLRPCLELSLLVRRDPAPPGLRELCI
Sequence of MAST2, Q6P0Q8 (Q6P0Q8 1099-1202): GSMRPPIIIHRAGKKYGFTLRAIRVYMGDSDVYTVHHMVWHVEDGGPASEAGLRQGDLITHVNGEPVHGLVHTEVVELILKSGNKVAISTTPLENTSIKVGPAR
Sequence of PTPN3, P26045 (P26045 505-587): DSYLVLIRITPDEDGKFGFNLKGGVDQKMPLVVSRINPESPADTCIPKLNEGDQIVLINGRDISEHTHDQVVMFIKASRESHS
Sequence of HTRA2, O43464 (O43464 355-458): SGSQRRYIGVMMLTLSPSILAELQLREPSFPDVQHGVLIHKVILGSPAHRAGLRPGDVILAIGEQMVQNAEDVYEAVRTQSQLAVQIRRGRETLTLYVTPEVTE
Sequence of Inadl_1, Q8NI35 (Q8NI35 113-229): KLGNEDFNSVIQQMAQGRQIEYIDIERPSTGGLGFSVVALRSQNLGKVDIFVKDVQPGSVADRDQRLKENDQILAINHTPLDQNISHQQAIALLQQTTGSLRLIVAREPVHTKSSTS
Sequence of LNX1_1, Q8TBB1 (Q8TBB1 261-371): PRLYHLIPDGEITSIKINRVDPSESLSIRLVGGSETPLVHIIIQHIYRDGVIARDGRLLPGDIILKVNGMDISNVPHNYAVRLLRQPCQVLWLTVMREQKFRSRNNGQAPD
Sequence of SCRIB_1, Q14160 (Q14160 718-814): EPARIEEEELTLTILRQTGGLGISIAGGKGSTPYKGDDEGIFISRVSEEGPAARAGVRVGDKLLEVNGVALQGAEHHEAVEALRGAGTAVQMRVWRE

B1: GRIN2B, Q13224 (peptide)
chain: EKLSSIESDV
pKd (AHNAK1, Q09666; [1]): below the threshold
pKd (APBA1_1, Q02410; [1]): below the threshold
pKd (ARHGEF12, Q9NZN5-2; [1]): 3.68
pKd (CASK, O14936; [1]): below the threshold
pKd (DLG3_3, Q92796; [1]): below the threshold
pKd (GORASP1, Q9BQQ3; [1]): below the threshold
pKd (GRIP1_2, Q9Y3R0; [1]): below the threshold
pKd (GRIP1_7, Q9Y3R0; [1]): 3.48
pKd (HTRA2, O43464; [1]): below the threshold
pKd (Inadl_1, Q8NI35; [1]): below the threshold
pKd (Inadl_8, Q8NI35; [1]): below the threshold
pKd (LIN7B, Q9HAP6; [1]): below the threshold
pKd (LIN7C, Q9NUP9; [1]): below the threshold
pKd (LNX1_1, Q8TBB1; [1]): 4.13
pKd (MAGI2_3, Q86UL8; [1]): below the threshold
pKd (MAGI2_5, Q86UL8; [1]): 3.82
pKd (MAGI3_2, Q5TCQ9; [1]): 3.54
pKd (MAST1, Q9Y2H9; [1]): 4.04
pKd (MAST2, Q6P0Q8; [1]): 4.49
pKd (NHERF2_2, Q15599; [1]): below the threshold
pKd (NHERF4_1, Q86UT5-2; [1]): 3.53
pKd (PARD3_3, Q8TEW0; [1]): below the threshold
pKd (PDLIM1, O00151; [1]): 3.71
pKd (PTPN3, P26045; [1]): 4.35
pKd (SCRIB_1, Q14160; [1]): 3.71
pKd (SCRIB_2, Q14160; [1]): 4.34
pKd (SCRIB_3, Q14160; [1]): 4.28
pKd (SNTG2, Q9NY99; [1]): 4.04
pKd (SNX27, Q96L92; [1]): 3.87
pKd (TJP1_2, Q07157; [1]): below the threshold
pKd (TJP3_3, O95049; [1]): below the threshold

B2: CIT, O14578 (peptide)
chain: VNKVWDQSSV
pKd (AHNAK1, Q09666; [2]): below the threshold
pKd (APBA1_1, Q02410; [2]): below the threshold
pKd (ARHGEF12, Q9NZN5-2; [2]): below the threshold
pKd (CASK, O14936; [2]): below the threshold
pKd (DLG3_3, Q92796; [2]): 3.7
pKd (GORASP1, Q9BQQ3; [2]): below the threshold
pKd (GRIP1_2, Q9Y3R0; [2]): below the threshold
pKd (GRIP1_7, Q9Y3R0; [2]): below the threshold
pKd (HTRA2, O43464; [2]): below the threshold
pKd (Inadl_1, Q8NI35; [2]): below the threshold
pKd (Inadl_8, Q8NI35; [2]): 4
pKd (LIN7B, Q9HAP6; [2]): below the threshold
pKd (LIN7C, Q9NUP9; [2]): below the threshold
pKd (LNX1_1, Q8TBB1; [2]): below the threshold
pKd (MAGI2_3, Q86UL8; [2]): below the threshold
pKd (MAGI2_5, Q86UL8; [2]): 3.7
pKd (MAGI3_2, Q5TCQ9; [2]): below the threshold
pKd (MAST1, Q9Y2H9; [2]): 4.51
pKd (MAST2, Q6P0Q8; [2]): 5.14
pKd (NHERF2_2, Q15599; [2]): below the threshold
pKd (NHERF4_1, Q86UT5-2; [2]): below the threshold
pKd (PARD3_3, Q8TEW0; [2]): below the threshold
pKd (PDLIM1, O00151; [2]): below the threshold
pKd (PTPN3, P26045; [2]): 3.78
pKd (SCRIB_1, Q14160; [2]): 5.04
pKd (SCRIB_2, Q14160; [2]): 3.51
pKd (SCRIB_3, Q14160; [2]): below the threshold
pKd (SNTG2, Q9NY99; [2]): below the threshold
pKd (SNX27, Q96L92; [2]): 5.11
pKd (TJP1_2, Q07157; [2]): below the threshold
pKd (TJP3_3, O95049; [2]): below the threshold

B3: PBK, Q96KB5 (peptide)
chain: HIVEALETDV
pKd (AHNAK1, Q09666; [2]): below the threshold
pKd (APBA1_1, Q02410; [2]): below the threshold
pKd (ARHGEF12, Q9NZN5-2; [2]): 4.23
pKd (CASK, O14936; [2]): below the threshold
pKd (DLG3_3, Q92796; [2]): 3.88
pKd (GORASP1, Q9BQQ3; [2]): below the threshold
pKd (GRIP1_2, Q9Y3R0; [2]): below the threshold
pKd (GRIP1_7, Q9Y3R0; [2]): below the threshold
pKd (HTRA2, O43464; [2]): below the threshold
pKd (Inadl_1, Q8NI35; [2]): below the threshold
pKd (Inadl_8, Q8NI35; [2]): below the threshold
pKd (LIN7B, Q9HAP6; [2]): below the threshold
pKd (LIN7C, Q9NUP9; [2]): 4.05
pKd (LNX1_1, Q8TBB1; [2]): 4.51
pKd (MAGI2_3, Q86UL8; [2]): 3.93
pKd (MAGI2_5, Q86UL8; [2]): 3.98
pKd (MAGI3_2, Q5TCQ9; [2]): 4.29
pKd (MAST1, Q9Y2H9; [2]): 5.15
pKd (MAST2, Q6P0Q8; [2]): 5.71
pKd (NHERF2_2, Q15599; [2]): 3.97
pKd (NHERF4_1, Q86UT5-2; [2]): below the threshold
pKd (PARD3_3, Q8TEW0; [2]): 3.76
pKd (PDLIM1, O00151; [2]): 3.91
pKd (PTPN3, P26045; [2]): 5.11
pKd (SCRIB_1, Q14160; [2]): 5.32
pKd (SCRIB_2, Q14160; [2]): 5.32
pKd (SCRIB_3, Q14160; [2]): 5.18
pKd (SNTG2, Q9NY99; [2]): 4.85
pKd (SNX27, Q96L92; [2]): 4.83
pKd (TJP1_2, Q07157; [2]): below the threshold
pKd (TJP3_3, O95049; [2]): below the threshold

B4: HTLV1-TAX1, P03409 (peptide)
chain: SEKHFRETEV
pKd (AHNAK1, Q09666; [2]): 3.92
pKd (APBA1_1, Q02410; [2]): below the threshold
pKd (ARHGEF12, Q9NZN5-2; [2]): 3.81
pKd (CASK, O14936; [2]): below the threshold
pKd (DLG3_3, Q92796; [2]): 5.34
pKd (GORASP1, Q9BQQ3; [2]): below the threshold
pKd (GRIP1_2, Q9Y3R0; [2]): below the threshold
pKd (GRIP1_7, Q9Y3R0; [2]): below the threshold
pKd (HTRA2, O43464; [2]): below the threshold
pKd (Inadl_1, Q8NI35; [2]): below the threshold
pKd (Inadl_8, Q8NI35; [2]): 3.86
pKd (LIN7B, Q9HAP6; [2]): 3.83
pKd (LIN7C, Q9NUP9; [2]): 4.59
pKd (LNX1_1, Q8TBB1; [2]): 3.89
pKd (MAGI2_3, Q86UL8; [2]): 4.3
pKd (MAGI2_5, Q86UL8; [2]): 4.84
pKd (MAGI3_2, Q5TCQ9; [2]): 4.99
pKd (MAST1, Q9Y2H9; [2]): below the threshold
pKd (MAST2, Q6P0Q8; [2]): 5.42
pKd (NHERF2_2, Q15599; [2]): below the threshold
pKd (NHERF4_1, Q86UT5-2; [2]): below the threshold
pKd (PARD3_3, Q8TEW0; [2]): 3.71
pKd (PDLIM1, O00151; [2]): 3.69
pKd (PTPN3, P26045; [2]): 5.26
pKd (SCRIB_1, Q14160; [2]): 5.63
pKd (SCRIB_2, Q14160; [2]): 5.76
pKd (SCRIB_3, Q14160; [2]): 5.34
pKd (SNTG2, Q9NY99; [2]): 4.12
pKd (SNX27, Q96L92; [2]): 5.72
pKd (TJP1_2, Q07157; [2]): below the threshold
pKd (TJP3_3, O95049; [2]): below the threshold
